Results from the supplement of paper PMC12042874.
± gives the uncertainty stated by the source.

experiment: amyloid nucleation score (Sup35N fusion, yeast selection) (log enrichment); library NNK2; higher = more nucleation; inactive = no reads after selection
Summary of the method: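 For the nucleation score, DiMSum gave the log enrichment of output over input reads, centred on the mode score of non-aggregating sequences. Psi-negative yeast expressing Sup35N fused to peptides of 20 random codons were induced with 100 μM copper sulfate for 24 hours and grown 7 days at 30°C on medium lacking adenine and uracil. Input and output plasmid inserts were Illumina-sequenced, and sequences with under 100 input reads were excluded.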

| Substance | amyloid nucleation score |
| --- | --- |
| NVITRGM | 0.899 ± 0.38 |
| AQVKKLDRARCRFQRVV | -1.4 ± 0.78 |
| IDPLKGMLD | -2 ± 0.78 |
| SWWTMWLLTRLRNSSSWGMT | 0.011 ± 0.23 |
| CLNRLFHTPGDGDNYCRAIL | 0.34 ± 0.5 |
| CEISFVFIWILIVFNNVDPD | inactive |
| LDTVPTWFYQVMWGYDWVLK | 2.81 ± 0.11 |
| GKSEVGLGVGEHMQSEHGGS | -0.055 ± 0.49 |
| LSHRSQYGADVIRSR | -0.316 ± 0.61 |
| IDLAFLLAVAVEPGWRTEV | -0.024 ± 1 |
| RVLTKYMFMILFSSSFSYVR | 0.154 ± 0.5 |
| THIAVIGISGTDEENLKLGR | 6.439 ± 0.026 |
| LFEMP | 0.728 ± 0.74 |
| ICLHHDYGSGWWIIQSAWQI | 2.95 ± 0.076 |
| ISVCITILSYVRNECWFRGD | -0.432 ± 0.24 |
| SWGTRV | inactive |
| MPLLRVVMTLRHKSLFKAEM | -0.272 ± 0.44 |
| KRFAIPEHTLTTYRQLA | 0.082 ± 0.42 |
| QQYPWYWIFIFNIYKYPSVS | 0.475 ± 0.42 |
| RTSKPLRRMNQRGLDFACAL | 1.04 ± 0.41 |
| IEMHDINYNP | -0.596 ± 0.29 |
| YDYYLMVISFRFVNFYNGVG | inactive |
| ISRLWCHRHLCCPGWSMVRQ | -0.063 ± 0.74 |
| GLTSFMLDVLRGETAHRGEG | 0.972 ± 0.52 |
| QYALLVY | inactive |

| Substance | amyloid nucleation score |
| --- | --- |
| VLTSNTANIGTLHLINIRFH | 8.173 ± 0.026 |
| SEHLTCLWCLW | 9.924 ± 0.064 |
| AVNSNDTRDGRCGVIAI | 0.057 ± 0.31 |
| SWKGHIISSAHQQLESPSLW | 0.345 ± 0.23 |
| FNIMIWA | inactive |
| NAYLVSRVIKLIVLSKWYRY | 0.689 ± 0.57 |
| EVWYTGYVCLWMYIAWINID | inactive |
| VQILSHFSADCKDDSVDQES | -1.06 ± 1.1 |
| GDSNG | -0.532 ± 0.29 |
| TNRIGFFLFCTAV | -0.049 ± 0.76 |
| CDMPLKLWTLAVLPLDVPYR | 0.179 ± 0.49 |
| HRPNCFRWPGLRVLFWYRK | -0.326 ± 0.45 |
| FTIALIYTFLLISCLLGMSV | 0.164 ± 1.1 |
| EQSNSNPSHKY | inactive |
| WSRSLKDGALESYSSVRLLC | 0.1 ± 0.28 |
| MSISSALNKSSHTNSSMWNK | -0.277 ± 0.31 |
| ICTGVSTHIEPRPLTELCFR | 2.6 ± 0.073 |
| PVIQYVTSG | -0.257 ± 0.5 |
| PGTFFSLSKWWFIDGVTEPG | 0.178 ± 0.77 |
| TCVQLKNAIFQVSWYILLQG | -0.322 ± 0.65 |
| IKLYCELCYFSNFWKIFTLR | inactive |
| TPFGTVECTQLLLSTSRWLF | -0.26 ± 1 |
| PSLTVPGVSRYCFS | -1.29 ± 0.75 |
| ITCTFFFSVSVLSTSVDSMY | 0.674 ± 0.57 |
| CHYRMVVKRYTFEHYAFYVG | -0.782 ± 0.61 |

| Substance | amyloid nucleation score |
| --- | --- |
| FYLFQWCK | -0.889 ± 1.1 |
| LYWAFTTISLYLTSTFVSLM | -1.66 ± 1.1 |
| GNMYLSEVNVTC | -0.78 ± 1.1 |
| YYLVV | -0.614 ± 0.56 |
| FCKYANSGGCNHSMSDAV | -0.761 ± 1.1 |
| HYGTTFVISL | 3.85 ± 0.1 |
| CRMNDNSDWVRYAGHKAMAS | 1.2 ± 0.27 |
| TVSIDLASIWALA | inactive |
| LRSLIYRCVLQWNTAKFLRS | -0.716 ± 1.1 |
| ALMTVASRKTLIPVGAKQMN | inactive |
| VNNYWNDSCARSLNMGRTGR | 0.791 ± 0.27 |
| LGYFTLSFS | 0.627 ± 0.81 |
| NSNLLNTLFWVVT | 4.03 ± 0.13 |
| TNWVDWESYISCGGNGFGGC | -0.92 ± 0.39 |
| PTSWFRSNMKWFYPVSQPHW | -0.434 ± 0.64 |
| HVMNGCGLYGQGSSRYYQTV | 0.957 ± 0.26 |
| MRAYFYNKRVISYSLISFPV | -1.45 ± 0.78 |
| SCFVLLSSVDSLCMQDHF | 0.311 ± 0.43 |
| FLRVRP | -0.719 ± 0.29 |
| ASSWGVNGRVNKISRTG | 1.32 ± 0.18 |
| SDGSREFSCKLGGAGLGDGW | 0.334 ± 0.5 |
| DGFRGLGLFHTY | -0.561 ± 0.31 |
| SKNLE | -2.09 ± 0.48 |
| SFYLLCLSFMSLCWASRLVV | 4.83 ± 0.073 |
| YITRFLPQVTVWQRVFCCSY | 7.454 ± 0.039 |

| Substance | amyloid nucleation score |
| --- | --- |
| VTRKVLGYCRVW | 0.472 ± 0.8 |
| HKWEAKMGPISVLFRCFGLD | 1.09 ± 0.14 |
| MMIAWFSRMCFF | 2.92 ± 0.1 |
| QLWMTQTRTPSSKIRSKP | 0.641 ± 0.74 |
| RDVWVRGLACLVASSTMHSS | 0.999 ± 0.32 |
| FTLFVRHPGIVALERNFMVR | -0.062 ± 0.35 |
| AGWNNSMGLDE | inactive |
| SFVRPGGWPNK | -0.264 ± 0.76 |
| YSFLHVIGANKFARACNNWS | -0.565 ± 0.78 |
| LFSKDVSRTLGPACFICEGT | 2.78 ± 0.072 |
| GSPSRRGTVYRVWRVRWCNG | 0.307 ± 0.64 |
| VVSKLFRDFYWRMLKSNMGW | 0.448 ± 0.62 |
| SSMDFVHCSWAVWHLGSFLC | -1.01 ± 0.78 |
| NCTRSSVWNNVVCLESHPSY | -0.035 ± 0.76 |
| AINWYYMHISMLECPAKNGS | -0.876 ± 0.76 |
| STYSPSSPHMLSYPFWARTP | -0.269 ± 0.76 |
| VNGPEDPPVHKLMKSTRRSC | 2.79 ± 0.088 |
| LMVESNWHALHLVYVFSYI | 0 ± 0.56 |
| YKFLLFFYVDTSYVMLFSGF | -0.887 ± 1.1 |
| KDNSTPRIGASDEIDVVLAF | 0.078 ± 0.77 |
| CNSRNMVTGISM | 0.034 ± 1.1 |
| VTFNALLGFLASICVITSRI | 3.16 ± 0.072 |
| PCLMVIRRWMITVFYQKLSG | 0.181 ± 0.2 |
| HICPFGCGYYLGEDKDAWSG | -0.749 ± 0.56 |
| GDLRYQSPSLCFCFMSFGDQ | 5.971 ± 0.024 |

| Substance | amyloid nucleation score |
| --- | --- |
| YGVDLSRRMV | 0.043 ± 0.46 |
| IVCSC | -0.194 ± 0.45 |
| GNVYHLPDCLNLTWVLKIKN | -0.944 ± 0.39 |
| GNVECS | -0.463 ± 0.45 |
| VNWIKGKGRLPPFHGIDCWW | -0.139 ± 0.63 |
| WGHFAMVRA | 0.426 ± 0.8 |
| NLLNKTWFVSILIKHTCMYS | 0.659 ± 0.56 |
| STVTELLRYPAHNFGEVHIL | 4.702 ± 0.047 |
| YAKNYSILQACQLDHWEFGV | 4.04 ± 0.056 |
| ENSLVYI | inactive |
| LIWGTPYKAW | 0.859 ± 0.41 |
| AYASPCMQDLGRCLGRPRML | 1.21 ± 0.31 |
| KIRRPFEMRGSVRDRGCIVR | 0.938 ± 0.34 |
| TCARFVGMEM | 1.22 ± 0.27 |
| QTRTRNLLIAQVECRGRSSW | inactive |
| RSILSCEGPDSLLEAFNEQI | 0.625 ± 0.64 |
| YNYPSVNIRLKIDLAGSLGC | 2.65 ± 0.097 |
| SWPVRFQLNATGSPVGRLWT | -0.334 ± 0.76 |
| ACNVILCVTNPTHNVIV | 9.254 ± 0.036 |
| VWWSLSYFQAVRGQLFHQIV | -0.139 ± 0.42 |
| QTTVHLTSLHMAGSLCV | -0.021 ± 0.79 |
| AAELLLSSGLVRQHAARRQY | 0.695 ± 0.26 |
| GVWYFANFFVVMRAVGCDVG | 0.484 ± 0.36 |
| KSASCKPIMSYPKVLPS | 0.208 ± 0.8 |
| FAVNDCILCCRRSHWVLPYW | -0.334 ± 0.63 |

| Substance | amyloid nucleation score |
| --- | --- |
| SNSQMKAAMVGCNLRGMEQA | 0.689 ± 0.57 |
| QVWPLCLVAGSSFGRRGVTG | 1.18 ± 0.29 |
| WLICQSIRLLAKNFLLSDRV | 0.019 ± 1.1 |
| LPCFYEVCQTSHYRFYFIGK | 1.96 ± 0.071 |
| YLPPNKNWFFVWVDFSSWVF | -0.627 ± 0.61 |
| CDVRSPSF | -1.02 ± 0.3 |
| TVFRFNIYDYFFVM | 4.27 ± 0.057 |
| DKVDLSA | 0.053 ± 1.1 |
| IFDCCY | -1.82 ± 1.1 |
| FGLLWNNQSWLVARVSCSNL | -0.04 ± 0.36 |
| TIEGALSSS | 0.931 ± 0.22 |
| LCNGGWIIRRADVSGVTNVE | -0.09 ± 0.24 |
| FFIWLPYRSTTINRISPCWG | -1.94 ± 0.54 |
| FRDANKGCIEKFVVTCDFRM | 0.003 ± 0.38 |
| FRSGRWRNGALSWHALATL | 0.658 ± 0.52 |
| ILQGADLKLVYFVNHRMERV | 1.24 ± 0.21 |
| HPKAYARVTTK | -0.068 ± 0.36 |
| SLACGNEKRFVMILSHI | 0.641 ± 0.74 |
| ADNVGS | 3.71 ± 0.058 |
| WLDLTYFFSRLGVDVISLQ | -0.468 ± 0.48 |
| STDYMGPAY | -0.617 ± 0.37 |
| VRIKCYVKPYFFQKFLHMIG | -1.34 ± 0.53 |
| LWTKFDSPSRVCHKSQLSKA | 0.192 ± 0.26 |
| LDIYLLDMLWPLCAVLSNIG | -0.541 ± 0.38 |
| CVHIKEVLAWLDRCGLGYVW | 0.662 ± 0.81 |

| Substance | amyloid nucleation score |
| --- | --- |
| FELIFELLLKKCALI | 0.032 ± 0.54 |
| CVYWWASGE | inactive |
| VFASMFILFYV | 3.46 ± 0.07 |
| FMGFTISFFVRDFAPDLTKR | 3.1 ± 0.064 |
| GLQRKGCP | -0.356 ± 1.1 |
| LFRQEAMIPL | 0.594 ± 0.66 |
| FACLYKTMQQLMGIKMCVKA | 0.277 ± 0.4 |
| GWIVSLFVV | 0.769 ± 0.46 |
| TSPGTGIVGDIYLHYIFVKW | 0.327 ± 0.46 |
| TLDIALKGG | 0.271 ± 0.25 |
| DGISFSAKSSSYSDASLRMR | 1.62 ± 0.097 |
| NPLQRTVYWFIIKRDCFHSV | -1.46 ± 0.45 |
| AQAFLNGVGRLLVCTRTCRN | 0.895 ± 0.81 |
| TSRYTHNCMPIDCMIMHMGI | 1.77 ± 0.14 |
| RNSVFPILLAYDASDFVARK | -0.494 ± 0.41 |
| VHVWWANVIRVMYNHVRSDW | 0.133 ± 0.34 |
| SGYCQDCSSGPFESDGINIS | -0.321 ± 1 |
| LYNRLACL | 1.86 ± 0.084 |
| NYCRTIFYYCAMIYFPCLAE | 1.77 ± 0.22 |
| ITHCLTAFSVLWILVYVW | inactive |
| ILWGERRIDSRSWKIVARYF | -0.664 ± 1.1 |
